Source: PMC9144871 (International Journal of Molecular Sciences, 2022)

Key:
[1] = target: the molecule itself; assay: SEC-MALS; analytical SEC-LS: Superdex 75 increase 10/30 with miniDAWN TREOS and refractive index detector; about 1.0 mg protein loaded; 50 mM Tris-HCl, 150 mM NaCl, 2.5% glycerol, pH 7.8; 0.5 mL/min
SARS-CoV-2 spike RBD-His [2] = target: T1, SARS-CoV-2 spike RBD-His (SARS-CoV-2, UniProt P0DTC2); assay: SPR; conditions: both partners purified
[3] = target: the molecule itself; assay: mass spectrometry; S-plug3 checked for its dimeric state by mass spectrometry; conditions not given
SARS-CoV-2 spike RBD-His [4] = target: T1, SARS-CoV-2 spike RBD-His; assay: SPR; conditions: both partners purified; remark: listed apart in the source

| Binder | stoichiometry N [1] | Kd (SARS-CoV-2 spike RBD-His [2]) | binding result [3] | Kd (SARS-CoV-2 spike RBD-His [4]) |
| --- | --- | --- | --- | --- |
| S-plug (designed binder, also called prototype S-plug) STIEEQAKTFLDKFNHEAEDLFYQSSLASWNYNTNITEENVQNMNNAGDKWSAFLKEQSTLAQMYPLQEIQNQTVKQQLQALQQN | 2 | 50 to 200 nM |  |  |
| S-plug3 (designed binder, also called S-plug2 with C-terminal arm PPGC; cysteine-locked S-plug) SAMEEQAKFFLDKLQHELEDTQYQLLYKALALNKSQQEELQKQYKKTYDEYVTLAKKWAKAASSIPLNSITDEKLYKAMEKTASSPPGC |  |  | binds | 39.5 ± 1.1 nM |
| S-plug2 (designed binder, also called thermo-stabilised S-plug; mutated form of S-plug) SAMEEQAKFFLDKLQHELEDTQYQLLYKALALNKSQQEELQKQYKKTYDEYVTLAKKWAKAASSIPLNSITDEKLYKAMEKTASS | 2 |  |  | 61.7 ± 2.3 nM |
